From patent publication US7893027B2, “Treatment of ocular wounds and ulcers” (The Board of Regents of the University of Oklahoma, priority 2002, dated 2011)

What was measured:
[1] = tested on: human corneal epithelial cells (HCEC); assay: CyQUANT cell proliferation assay; format: cell-based; settings: for Increase in cell numbers: 72 hr post treatment
Experimental: Human corneal epithelial cells were seeded onto 48 well tissue culture plates (7.5×10^3 cells/well, FALCON, Franklin Lakes, N.J.) and cultured as described above.
Cultures were changed to growth factor-free basic medium overnight and treated with various concentrations of CAP37 (0-2000 ng/ml) for 48-72 hrs. Recombinant human Epidermal Growth Factor (EGF 50 ng/ml, BECTON DICKINSON, Bedford, Mass.) and recombinant human Hepatocyte Growth Factor/Scatter Factor (HGF/SF 20 ng/ml, BECTON DICKINSON) were used as positive controls and growth factor-free basic medium as negative control. The medium was aspirated and new medium with CAP37 or growth factors were added to the cultures every 24 hr. The CyQUANT Cell Proliferation Assay Kit (MOLECULAR PROBES, Eugene, Oreg.) was used to quantify cell proliferation exactly according to the manufacturer's specifications. Briefly, cells were frozen, thawed, and lysed with the addition of the lysis buffer containing the green fluorescent dye, CyQUANT GR which binds to nucleic acids and the fluorescence levels read on fluorescent micro plate reader (fmax MOLECULAR DEVICES, Sunnyvale, Calif.) with filters for 485 nm excitation and 538 nm emission.

PECAM-1 (CD31) = assay: Flow cytometry of PECAM-1 expression on HCEC; format: cell-based, human; settings: CAP37 1 μg/ml
Experimental: Flow cytometry was used to assess the upregulation of PECAM-1 (CD31), and the integrin molecules β1 (CD29), β2 (CD18), β3 (CD61), β4 (CD104), α1 (CD49a), α2 (CD49b), α3 (CD49c), α4 (CD 49d), and αv (CD51). Human corneal epithelial cells were cultured as above and treated with CAP37 (0-2000 ng/ml) for 0-72 hr. A corresponding culture was left untreated at each time point. Following treatment with CAP37, cells were detached with 0.25% trypsin in 1 mM EDTA (pH 7.4, FISHER SCIENTIFIC, Pittsburgh, Pa.), washed twice in PBS and fixed with 0.125% paraformaldehyde (J.T. BAKER, Phillipsburg, N.J.) overnight at 4° C. The cells were washed in PBS and then incubated in 0.5% normal goat serum and 0.5% bovine serum albumin (BSA) in PBS for 30 min to block non-specific binding sites. Cells were incubated in the primary antibody (at concentrations described below) at 4° C. for 1 hr followed by the secondary antibody (FITC-goat anti-mouse IgG, PHARMINGEN, San Diego, Calif.) at 0.5 μg/10^6 cells and incubated at 4° C. for 30 min. The isotype control for these studies was FITC-labeled mouse isotype IgG1 (PHARMINGEN). The cells were analyzed by flow cytometry (FACS Calibur, BECTON DICKINSON, San Jose, Calif.). At least ten thousand cells were analyzed for each sample. […]

B1: CAP37: Cationic Antimicrobial Protein of Mr 37 kDa; recombinant protein from human 293 cells, identical to native PMN-derived CAP37 (SEQ ID NO:1) (protein, listed as Homo sapiens)
chain: IVGGRKARPRQFPFLASIQNQGRHFCGGALIHARFVMTAASCFQSQNPGVSTVVLGAYDLRRRERQSRQTFSISSMSENGYDPQQNLNDLMLLQLDREANLTSSVTILPLPLQNATVEAGTRCQVAGWGSQRSGGRLSRFPRFVNVTVTPEDQCRPNNVCTGVLTRRGGICNGDGGTPLVCEGLAHGVASFSLGPCGRGPDFFTRVALFRDWIDGVLNNPGP
- Levels of proliferation relative to positive controls ([1]; 1000-2000 ng/ml, 48 hours): comparable to those obtained with the two positive controls, EGF and HGF
- Proliferation of HCEC ([1]; 48 hours post treatment, versus culture medium alone): significant increase in proliferation over basal levels
- Increase in cell numbers ([1]; 1000 ng/ml): approximately two
- Increase in cell numbers ([1]; 2000 ng/ml): three
- PECAM-1 protein expression (PECAM-1 (CD31); 24 hr): waned
- PECAM-1 protein expression (PECAM-1 (CD31); at 6 hr, maintained through 12 hr): Significant protein expression
